# Test results taken from publication PMC4417206.
# Target: T1, N-ht-CRP (cAMP receptor protein) (Shewanella oneidensis MR-1) (UniProt Q8EJ49)
# T1 sequence: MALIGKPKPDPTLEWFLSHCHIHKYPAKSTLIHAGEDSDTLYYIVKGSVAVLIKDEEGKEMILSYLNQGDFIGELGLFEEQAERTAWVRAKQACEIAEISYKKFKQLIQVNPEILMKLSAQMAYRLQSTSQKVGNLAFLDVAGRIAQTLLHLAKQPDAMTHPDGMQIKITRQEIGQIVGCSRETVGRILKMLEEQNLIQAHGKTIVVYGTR
# Experiment: EMSA
# Conditions: 10 mM Tris-HCl pH 7.6, 0.5 mM EDTA, 100 mM KCl, 50 ug/mL BSA, 50 ug/mL poly(dI-dC), 50 uM cAMP, 10% glycerol, 2 nM probe, 0-200 ng CRP in 20 uL, on ice 30 min …
row,Sequence,binding
1,CCCGCTTAAAGTGACTGATAAATACCAATGACTTAGTTAGCCTTACAGGTGGGATCTAATTCC (double strand) [PBomcA2],no binding
2,CCTTGGGGAATTCTATTTCCAGCATCCACTTAAGTCGCTTCTAGTGATCAAATACACAGACATAGAATCTGTTGGCGCTAGAGCATAGCGGTTAAGCAATGCCAAACCTATGCAGGGAAAA (double strand) [PBmtrC2],no binding
3,TCCACCTCACTATCTGTTGTTTTTTTGCTCTCAATTTGTTTTTCCCTTGTGGTTTAACTACCTCTTTAGAAATAGAAAGATCCAAGTCACACATTAGCAAAGGCTTAGAAGATTTTAACGGCATGTTGGGTTAGCCTTTCCTTGGGGAATTCTATTTCCAGCATCCACTTAAGTCGCTTCTAGTGATCAAATACACAGACATAGAATCTGTTGGCGCTAGAGCATAGCGGTTAAGCAATGCCAAACCTATGCAGGGAAAA (double strand) [PBmtrC1],binds more weakly
